Experimental data taken from publication PMC12090190 (ACS Chemical Biology, 2025).

T1: WT hOTC (human ornithine transcarbamylase) (Homo sapiens, UniProt P00480)
T1 sequence (P00480 33-354): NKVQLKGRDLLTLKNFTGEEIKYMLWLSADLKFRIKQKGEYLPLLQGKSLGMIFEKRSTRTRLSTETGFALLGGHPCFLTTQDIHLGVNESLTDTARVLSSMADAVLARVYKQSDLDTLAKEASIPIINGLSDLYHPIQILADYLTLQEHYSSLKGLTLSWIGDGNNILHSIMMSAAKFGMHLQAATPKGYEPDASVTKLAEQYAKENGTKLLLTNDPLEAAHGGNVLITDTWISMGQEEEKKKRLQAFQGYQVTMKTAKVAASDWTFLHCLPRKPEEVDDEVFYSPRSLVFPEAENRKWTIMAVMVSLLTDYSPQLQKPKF


Assays:
[1] = biological target: T1, WT hOTC (human ornithine transcarbamylase); assay: differential scanning fluorimetry; format: binding; settings: 4 μM enzyme; 10 mM sodium phosphate
[2] = substrate: NC(=O)OP(=O)(O)O; assay: discontinuous colorimetric citrulline assay, steady-state kinetics; format: biochemical, Homo sapiens; settings: co-substrate ornithine

Molecule	dTm [1]	Km [2] [µM]	kcat [2] [s⁻¹]	kcat/Km [2] [M⁻¹ s⁻¹]
O=P(O)(O)O [phosphate]	The addition of phosphate generally increased the melting temperature of these variants			
WT hOTC (human ornithine transcarbamylase) (Homo sapiens) (protein) NKVQLKGRDLLTLKNFTGEEIKYMLWLSADLKFRIKQKGEYLPLLQGKSLGMIFEKRSTRTRLSTETGFALLGGHPCFLTTQDIHLGVNESLTDTARVLSSMADAVLARVYKQSDLDTLAKEASIPIINGLSDLYHPIQILADYLTLQEHYSSLKGLTLSWIGDGNNILHSIMMSAAKFGMHLQAATPKGYEPDASVTKLAEQYAKENGTKLLLTNDPLEAAHGGNVLITDTWISMGQEEEKKKRLQAFQGYQVTMKTAKVAASDWTFLHCLPRKPEEVDDEVFYSPRSLVFPEAENRKWTIMAVMVSLLTDYSPQLQKPKF		240 ± 70	56 ± 9.8	240000 ± 29000
